Experiment [1] deals with human Twisted gastrulation (residues Cys26-Phe223) (human) (UniProt Q9GZX9). The experiment in a line: SPR. For orientation: In SPR one partner is held on a chip, and binding of the other changes the refractive index at the surface.
The target of experiment [2] is human Twisted gastrulation Leu107Ala (human) (UniProt Q9GZX9). The experiment in a line: SPR.

The Kd is a measure of binding affinity in units of concentration. Read a low Kd as a tighter complex.

Sequence of human Twisted gastrulation Leu107Ala (human) (Q9GZX9 26-223 L107A): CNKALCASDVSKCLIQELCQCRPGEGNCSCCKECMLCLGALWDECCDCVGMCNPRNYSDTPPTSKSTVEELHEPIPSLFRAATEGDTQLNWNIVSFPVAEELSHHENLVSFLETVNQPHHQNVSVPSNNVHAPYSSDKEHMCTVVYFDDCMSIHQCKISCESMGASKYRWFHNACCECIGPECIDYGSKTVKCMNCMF
Sequence of human Twisted gastrulation (residues Cys26-Phe223) (human) (Q9GZX9 26-223): as the sequence (Q9GZX9 26-223 L107A) above, with A82L counted along it

For the substance “human CHRDL2 (Arg24-Thr429) (natural protein)”, the values for the Kd in experiment [1] and in experiment [2] were 5 nM and 11 nM, respectively.

The values above are taken from article doi:10.1101/2024.07.08.602551.
